Laboratory results published in the supplement of paper PMC9170038.

Tested on: MS2 coat protein
Test: apparent KD of MS2 coat protein; designed switch direction (-1 OFF switch, 1 ON switch): -1; higher = weaker reporter binding
Procedure, shortened: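 The buffer was Tris-HCl pH 7.5 with KCl, MgCl2, BSA, DTT, tRNA and Tween-20. In it, SNAP-549-labelled MS2 coat protein was titrated in doubling steps from 0.7 or 1.5 nM to 3 µM over chip-bound RNA switches transcribed by stalled E. coli RNA polymerase on Illumina chips. Apparent KD is the per-design median over clusters of curve fits to normalised fluorescence.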

[1] = input ligand: microRNA oligo, concentration not stated
[2] = Eterna round: R95, input ligand: FMN 200 uM
[3] = Eterna round: R95, input ligand: microRNA oligo, concentration not stated
[4] = Eterna round: R95, input ligand: none

GAAAACGCAGAGGAUAUUCCAGAUCUAAGCUGCGAAGAAGGCUGCACAUGAGGAUCACCCAUGUGGUCUUUAAA [Maoned] (Eterna round: R96, puzzle: Exclusion 6)
apparent KD of MS2 coat protein [1]: 13.7 nM

GAAAACGCAGAGGAUAUUCCAGAUCUAAGCUGCGAAGAAGGCUGCACAUGAGGAUCACCCAUGUGGUCUUUAAA [Maoned] (puzzle: Exclusion 6)
apparent KD of MS2 coat protein [2]: 121 nM | apparent KD of MS2 coat protein [3]: 12.3 nM | apparent KD of MS2 coat protein [4]: 14.9 nM

GAAAACGCAGAGGAUAUUUCAGAUCAAAGCUGCAAAGAAGGCUGCACAUGAGGAUCACCCAUGUGGUCUUCAAA [jl-ex6-4.02 ViennaUCT mod] (Eterna round: R97, puzzle: Exclusion 6)
apparent KD of MS2 coat protein (input ligand: FMN 200 uM): 386 nM | apparent KD of MS2 coat protein (input ligand: none): 20.7 nM

GAAAACGUAGGAUAUUAAUACUUAUACAUGAGGAUCACCCAUGUUUGGUGGGUUUAAGAAUGAGAAGGGCGAUGAA [EX5 #8] (Eterna round: R97, puzzle: Exclusion 5)
apparent KD of MS2 coat protein (input ligand: FMN 200 uM): 446 nM | apparent KD of MS2 coat protein (input ligand: none): 717 nM

GAAAAGGUAGAGGAUAUUUCAGGUCAAAGCUGCAAAGAAGGCUGCACAUGAGGAUCACCCAUGUGGUCUUAAAA [Mod of Quesina 7 - Jieux - Exclusion 6] (Eterna round: R97, puzzle: Exclusion 6)
apparent KD of MS2 coat protein (input ligand: FMN 200 uM): 90.4 nM | apparent KD of MS2 coat protein (input ligand: none): 25.7 nM

GAAAAGGUAGGAUAUACGAAAAAAAAGGGUAGAAAAAAAAAACAUGAGGAUCACCCAUGUAGAAGGACCAAAAG [salish99_ex2_r3_059] (Eterna round: R96, puzzle: Exclusion 2)
apparent KD of MS2 coat protein [1]: 34.7 nM

GAAAAGGUAGGAUAUACGAAAAAAAAGGGUAGAAAAAAAAAACAUGAGGAUCACCCAUGUAGAAGGACCAAAAG [salish99_ex2_r3_059] (puzzle: Exclusion 2)
apparent KD of MS2 coat protein [2]: 134 nM | apparent KD of MS2 coat protein [3]: 26.6 nM | apparent KD of MS2 coat protein [4]: 13.7 nM

GAAAAGGUAGGAUAUACGAAAAAAAAGGGUAGAAAAGAAACACAUGAGGAUCACCCAUGUAGAAGGACCAAAAG [salish99_ex2_r3_016] (puzzle: Exclusion 2)
apparent KD of MS2 coat protein [2]: 78 nM | apparent KD of MS2 coat protein [3]: 27.8 nM | apparent KD of MS2 coat protein [4]: 21.5 nM

GAAAAGGUAGGAUAUACGAAAAAGAAGGGUAGAAAAAAAACACAUGAGGAUCACCCAUGUAGAAGGACCAAAAG [salish99_ex2_r3_026] (puzzle: Exclusion 2)
apparent KD of MS2 coat protein [2]: 56 nM | apparent KD of MS2 coat protein [3]: 24.1 nM | apparent KD of MS2 coat protein [4]: 21 nM

GAAAAGGUAGGAUAUACGAAAACAAAGGGUAGAAACAAAACACAUGAGGAUCACCCAUGUAGAAGGACCAAAAG [salish99_ex2_r3_097] (Eterna round: R96, puzzle: Exclusion 2)
apparent KD of MS2 coat protein [1]: 30.8 nM

GAAAAGGUAGGAUAUACGAAAACAAAGGGUAGAAACAAAACACAUGAGGAUCACCCAUGUAGAAGGACCAAAAG [salish99_ex2_r3_097] (puzzle: Exclusion 2)
apparent KD of MS2 coat protein [2]: 164 nM | apparent KD of MS2 coat protein [3]: 25.6 nM | apparent KD of MS2 coat protein [4]: 25.4 nM

GAAAAGGUAGGAUAUACGAAAAGAAAGGGUAGAGAAGAAACACAUGAGGAUCACCCAUGUAGAAGGACCAAAAG [salish99_ex2_r3_098] (puzzle: Exclusion 2)
apparent KD of MS2 coat protein [2]: 96.4 nM | apparent KD of MS2 coat protein [3]: 26.4 nM | apparent KD of MS2 coat protein [4]: 28.4 nM

GAAAAGGUAGGAUAUACGAAAAUAAAGGGUAGAAAUAAAACACAUGAGGAUCACCCAUGUAGAAGGACCAAAAG [salish99_ex2_r3_096] (puzzle: Exclusion 2)
apparent KD of MS2 coat protein [2]: 70.6 nM | apparent KD of MS2 coat protein [3]: 23.3 nM | apparent KD of MS2 coat protein [4]: 23.2 nM

GAAAAGGUAGGAUAUACGAAGAAAAAGGGUAGAAAAAAAACACAUGAGGAUCACCCAUGUAGAAGGACCAAAAG [salish99_ex2_r3_028] (puzzle: Exclusion 2)
apparent KD of MS2 coat protein [2]: 54.4 nM | apparent KD of MS2 coat protein [3]: 23.8 nM | apparent KD of MS2 coat protein [4]: 20.2 nM

GAAAAGGUAGGAUAUACGAGAAAAAAGGGUAGAAAAAAAACACAUGAGGAUCACCCAUGUAGAAGGACCAAAAG [salish99_ex2_r3_029] (puzzle: Exclusion 2)
apparent KD of MS2 coat protein [2]: 35.5 nM | apparent KD of MS2 coat protein [3]: 23.1 nM | apparent KD of MS2 coat protein [4]: 21.3 nM

GAAAAGGUAGGAUAUACGAUAAUAAAGGGUAGAUAAUAAACACAUGAGGAUCACCCAUGUAGAAGGACCAAAAG [salish99_ex2_r3_103] (puzzle: Exclusion 2)
apparent KD of MS2 coat protein [2]: 127 nM | apparent KD of MS2 coat protein [3]: 35 nM | apparent KD of MS2 coat protein [4]: 35.2 nM

GAAAAGUGAGGAUAUGGUAAAAAAAAAAGAAAAAAAAAACUCCAGAAGGCACAUGAGGAUCACCCAUGUAAAAG [salish99_ex4_r3_003] (puzzle: Exclusion 4)
apparent KD of MS2 coat protein [2]: 41.9 nM | apparent KD of MS2 coat protein [3]: 19.5 nM | apparent KD of MS2 coat protein [4]: 58.6 nM

GAAAAGUGAGGAUAUGGUAAAAGAAAAAGAAAAAAAAAACUCCAGAAGGCACAUGAGGAUCACCCAUGUAAAAG [salish99_ex4_r3_004] (puzzle: Exclusion 4)
apparent KD of MS2 coat protein [2]: 33.5 nM | apparent KD of MS2 coat protein [3]: 24.5 nM | apparent KD of MS2 coat protein [4]: 24 nM

GAAAAGUGAGGAUAUGGUAAAAGAAAAAGAAAAAGAAAACUCCAGAAGGCACAUGAGGAUCACCCAUGUGAAAG [salish99_ex4_r3_006] (puzzle: Exclusion 4)
apparent KD of MS2 coat protein [2]: 15.7 nM | apparent KD of MS2 coat protein [3]: 16.2 nM | apparent KD of MS2 coat protein [4]: 15.8 nM

GAAACGGGUGCACCUCAGUCACAUGAGGAUCACCCAUGUUCUGAGGAUAUGCAUCCAAACGGAACGCAGAAGGCGGAACGUAAC [Beisoner] (Eterna round: R96, puzzle: Exclusion NG 3)
apparent KD of MS2 coat protein (input ligand: FMN 200 uM): 14.6 nM | apparent KD of MS2 coat protein [1]: 14 nM | apparent KD of MS2 coat protein (input ligand: none): 16.4 nM

GAAAUACAUGAGGAUCACCCAUGUGAGGAUAUGCUAUGGAAAUAAAAAAUAAAACAUAGCAGAAGGUACAAAAG [Mat - Exclusion 1 - Eli mod - D43] (Eterna round: R96, puzzle: Exclusion 1)
apparent KD of MS2 coat protein [1]: 50.9 nM

GAACAAGCGUGAGGCUCGUCUUAAAGAGCCUCAUGAAAAACAUGAGGAUCACCCAUGUAAAAUGAUCGAAAGAUCAA [Mat - Sensor v2 - var 2 - Mod - D131] (Eterna round: R96, puzzle: Sensor v2, turn-off variant 2)
apparent KD of MS2 coat protein (input ligand: FMN 200 uM): 14.9 nM | apparent KD of MS2 coat protein [1]: 12.7 nM | apparent KD of MS2 coat protein (input ligand: none): 16.9 nM

GAACCAUGAGGAUAUUCUGAUCCUUACAUGAGGAUCACCCAUGUGAGUACAAAAGUACUCGAAGAAGGCAUGGUUC [Omei Ex5 B1] (Eterna round: R97, puzzle: Exclusion 5)
apparent KD of MS2 coat protein (input ligand: FMN 200 uM): 616 nM | apparent KD of MS2 coat protein (input ligand: none): 2130 nM

GAACUGAAGCUUUGCUUUAGUCGUACAUGAGGAUCACCCAUGUAGGAUAUGGUAGGCUUUGCUUACUAGAAGGACAGAGUGAUC [Mat - Exclusion NG 3 - Mod of JL - D68] (Eterna round: R96, puzzle: Exclusion NG 3)
apparent KD of MS2 coat protein (input ligand: FMN 200 uM): 61.8 nM | apparent KD of MS2 coat protein [1]: 73.8 nM | apparent KD of MS2 coat protein (input ligand: none): 113 nM

GAAGAAGAGAGAAAAGAAAACAUGAGGAUCACCCAUGUGAGAAGAUGAGGGUGUAACAGGCUUUAUGCUCGUCUUAU (puzzle: Sensor v3, turn-off variant 1)
apparent KD of MS2 coat protein [2]: 33.6 nM | apparent KD of MS2 coat protein [3]: 120 nM | apparent KD of MS2 coat protein [4]: 40.1 nM

GAAGAGACAGGAUAUACAUGAGGAUCACCCAUGUGAGGAGGUUGGAGGCGGAGAAGGUGUAGAAGGGUCAAAGA [JR_Exclu3_Sub022] (puzzle: Exclusion 3)
apparent KD of MS2 coat protein [2]: 41.5 nM | apparent KD of MS2 coat protein [3]: 36 nM | apparent KD of MS2 coat protein [4]: 51.4 nM

GAAGAGACAGGAUAUACAUGAGGAUCACCCAUGUGAGGAUGUUGGAGGCGGAGGAGGUGUAGAAGGGUCAAAGA [JR_Exclu3_Sub020] (puzzle: Exclusion 3)
apparent KD of MS2 coat protein [3]: 26.7 nM

GAAGAGACAGGAUAUACAUGAGGAUCACCCAUGUGAGUAUGUUGGAGGCGGAGGAGAUGUAGAAGGGUCAAAGA [JR_Exclu3_Sub018] (puzzle: Exclusion 3)
apparent KD of MS2 coat protein [2]: 36.3 nM | apparent KD of MS2 coat protein [3]: 23.9 nM | apparent KD of MS2 coat protein [4]: 29.7 nM

GAAGUUAGAGGAUAUACAUGAGGAUCACCCAUGUGUGAAGUAAACUUUGUAUGUUUAUGUAGAAGGCUAACUUC [-21.7, -19.9 kcal, 32% A] (Eterna round: R97, puzzle: Exclusion 3)
apparent KD of MS2 coat protein (input ligand: FMN 200 uM): 94 nM | apparent KD of MS2 coat protein (input ligand: none): 19.1 nM

GAAUACAGAGGAUAUGCGUAAUAGGUAGUAAGAUAUAUAUGACAUGAGGAUCACCCAUGUAGAAGGCUGAGAUA [EX2 #1] (Eterna round: R97, puzzle: Exclusion 2)
apparent KD of MS2 coat protein (input ligand: FMN 200 uM): 26.9 nM | apparent KD of MS2 coat protein (input ligand: none): 30.5 nM

GAAUAGGGAGGAUAUCCAAUAUAUGACAUGAGGAUCACCCAUGUUUCCACUCGUACCUCCGGAGAAGGCCCAUAAG [Ex5 #5] (Eterna round: R97, puzzle: Exclusion 5)
apparent KD of MS2 coat protein (input ligand: FMN 200 uM): 22.4 nM | apparent KD of MS2 coat protein (input ligand: none): 30.6 nM

GACAGCGGAGGAUAUGCCGUAGAUUACAUGAGGAUCACCCAUGUGGGCUGUAAGUAAUAGGCAGAAGGCUGCCGUU [Eternabot (Original) Solution 33] (Eterna round: R97, puzzle: Exclusion 5)
apparent KD of MS2 coat protein (input ligand: FMN 200 uM): 144 nM | apparent KD of MS2 coat protein (input ligand: none): 109 nM

GACAUGAGGAUCACCCAUGUAACCAGGGCAAUUCUCGAAAUGGAGGAUAUGAAUCUUAAUUAGGUUCAGAAGGCCAGAAGGCUA [Eternabot solution 29] (Eterna round: R96, puzzle: Exclusion NG 3)
apparent KD of MS2 coat protein (input ligand: FMN 200 uM): 784 nM | apparent KD of MS2 coat protein [1]: 194 nM | apparent KD of MS2 coat protein (input ligand: none): 206 nM

GACAUGAGGAUCACCCAUGUAACCUCAUGUAGGAAGGAGAGUAAGGAUAUAUAUGAAGGAAUGAAGUAGAAGGUGCAUAGAGAG [Default title] (Eterna round: R96, puzzle: Exclusion NG 3)
apparent KD of MS2 coat protein (input ligand: FMN 200 uM): 539 nM | apparent KD of MS2 coat protein [1]: 1350 nM | apparent KD of MS2 coat protein (input ligand: none): 854 nM
